{"source": "paper PMC3567243", "about": "(Molecular Microbiology, 2012)", "key": {"Ddn": {"molecular_target": "Ddn (Mycobacterium tuberculosis, UniProt P9WP15)", "sequence (P9WP15 whole entry)": "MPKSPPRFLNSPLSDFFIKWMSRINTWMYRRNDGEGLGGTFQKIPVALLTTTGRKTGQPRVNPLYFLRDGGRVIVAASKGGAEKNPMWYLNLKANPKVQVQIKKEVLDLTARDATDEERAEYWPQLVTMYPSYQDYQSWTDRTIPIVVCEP", "assay": "F420H2 oxidation, absorbance at […] nm"}, "[1]": {"tested_on": "COC1=C(OC)C(=O)C(C)=CC1=O", "assay": "purified protein", "conditions": "pH 8.0"}, "[2]": {"tested_on": "CC1=C(C)C(=O)c2ccccc2C1=O", "assay": "purified protein", "conditions": "pH 8.0"}, "[3]": {"tested_on": "COC1=C(OC)C(=O)C(CC=C(C)C)=C(C)C1=O", "assay": "purified protein", "conditions": "pH 8.0"}, "CC1=CC(=O)c2ccccc2C1=O": {"tested_on": "CC1=CC(=O)c2ccccc2C1=O", "assay": "purified protein"}, "[4]": {"tested_on": "COC1=C(OC)C(=O)C(C/C=C(\\C)CCC=C(C)C)=C(C)C1=O", "assay": "purified protein", "conditions": "pH 8.0"}, "[5]": {"conditions": "co-substrate 100 μM F420H2, 200 mM Tris-HCl pH 8.0, 0.01% Triton X-100"}}, "note": "Read-outs that look alike come from different tables or passages of the source.", "data": [{"compound": "O=C1C=CC(=O)c2ccccc21", "note": "[1,4-naphthoquinone]", "values": [{"measurement": "Km", "setting": "Ddn; [5]", "result": "2.23 ± 1.19", "unit": "µM"}]}, {"compound": "O=[N+]([O-])c1cn2c(n1)OC[C@@H](OCc1ccc(OC(F)(F)F)cc1)C2", "note": "[PA-824]", "values": [{"measurement": "Km", "setting": "Ddn", "result": "28.6 ± 3.55", "unit": "µM"}]}, {"compound": "CC1=CC(=O)c2c(O)cccc2C1=O", "note": "[Plumbagin]", "values": [{"measurement": "Km", "setting": "Ddn; [5]", "result": "2.17 ± 2.74", "unit": "µM"}]}, {"compound": "(Mycobacterium tuberculosis H37Rv)", "values": [{"measurement": "Km", "setting": "[1]", "result": "12.35 ± 2.65", "unit": "µM"}, {"measurement": "kcat/Km", "setting": "[1]", "result": 1670, "unit": "M⁻¹ s⁻¹"}, {"measurement": "Km", "setting": "[2]", "result": "2.21 ± 0.98", "unit": "µM"}, {"measurement": "kcat/Km", "setting": "[2]", "result": 40500, "unit": "M⁻¹ s⁻¹"}, {"measurement": "Km", "setting": "[3]", "result": "10.12 ± 2.23", "unit": "µM"}, {"measurement": "kcat/Km", "setting": "[3]", "result": 3500, "unit": "M⁻¹ s⁻¹"}, {"measurement": "Km", "setting": "CC1=CC(=O)c2ccccc2C1=O", "result": "2.09 ± 0.91", "unit": "µM"}, {"measurement": "kcat/Km", "setting": "CC1=CC(=O)c2ccccc2C1=O", "result": 255000, "unit": "M⁻¹ s⁻¹"}, {"measurement": "Km", "setting": "CC1=CC(=O)c2ccccc2C1=O; pH 8.0", "result": "3.44 ± 1.27", "unit": "µM"}, {"measurement": "kcat/Km", "setting": "CC1=CC(=O)c2ccccc2C1=O; pH 8.0", "result": 86000, "unit": "M⁻¹ s⁻¹"}, {"measurement": "Km", "setting": "[4]", "result": "3.14 ± 0.97", "unit": "µM"}, {"measurement": "kcat/Km", "setting": "[4]", "result": 28800, "unit": "M⁻¹ s⁻¹"}]}]}
